Target: T1, FlhA^C−link (longer FlhA^C construct that includes the linker) (Salmonella enterica serovar Typhimurium ST313), P40729
T1 chain: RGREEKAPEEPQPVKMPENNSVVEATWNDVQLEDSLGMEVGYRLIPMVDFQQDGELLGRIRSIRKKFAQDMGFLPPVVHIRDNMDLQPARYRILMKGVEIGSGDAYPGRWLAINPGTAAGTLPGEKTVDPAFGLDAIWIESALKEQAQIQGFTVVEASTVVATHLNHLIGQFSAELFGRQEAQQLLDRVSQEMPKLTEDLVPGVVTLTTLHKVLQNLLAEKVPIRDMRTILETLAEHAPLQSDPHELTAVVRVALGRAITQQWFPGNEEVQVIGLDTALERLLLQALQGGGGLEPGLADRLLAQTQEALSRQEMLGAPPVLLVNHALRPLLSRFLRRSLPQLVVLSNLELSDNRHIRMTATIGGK
Experiment: SEC-MALS; Superdex 200 10/300 GL; 50 mM NaPi pH 6.8, 0.1 M NaCl, 0.05% NaN3; samples at 0.05–0.5 mM; room temperature
Conditions: remark: other sources report otherwise

B1: FlhA^C−link (longer FlhA^C construct that includes the linker), P40729 328-692 (domain or fragment)
chain: T1 chain
For B1, the stoichiometry N was 2.

— article PMC5932034
